Target: insulin receptor (IR-B) (UniProt P06213)
Assay: cell-based or functional assay

CIU-033 (from UniProt P09681 52-93) (ligand; B1 amine-CH2CH2CH2-S-S-Cys of incretin; X=Aib)
Normalized IR-B EC50: 0.988 nM

Reference: US20170281788A1
